{
  "source": "paper doi:10.1101/2022.12.04.519012",
  "about": "(bioRxiv, 2022)",
  "binders": {"B1": {"name": "AMBRA1^WD40 (residues 1-204 directly fused to residues 853-1044) (domain or fragment)", "chain": "MKVVPEKNAVRILWGRERGARAMGAQRLLQELVEDKTRWMKWEGKRVELPDSPRSTFLLAFSPDRTLLASTHVNHNIYITEVKTGKCVHSLIGHRRTPWCVTFHPTISGLIASGCLDGEVRIWDLHGGSESWFTDSNNAIASLAFHPTAQLLLIATANEIHFWDWSRREPFAVVKTASEMERVRLVRFDPLGHYLLTAIVNPSNSNIANTTYRLQWWDFTKFDLPEISNASVNVLVQNCKIYNDASCDISADGQLLAAFIPSSQRGFPDEGILAVYSLAPHNLGEMLYTKRFGPNAISVSLSPMGRYVMVGLASRRILLHPSTEHMVAQVFRLQQAHGGETSMRRVFNVLYPMPADQRRHVSINSARWLPEPGLGLAYGTNKGDLVICRPEALNSG"}},
  "target": "DDB1 with N terminal Twin-Strep-FLAG (TSF) tag (human, UniProt Q16531 1-1140)",
  "sequence (Q16531 whole entry)": "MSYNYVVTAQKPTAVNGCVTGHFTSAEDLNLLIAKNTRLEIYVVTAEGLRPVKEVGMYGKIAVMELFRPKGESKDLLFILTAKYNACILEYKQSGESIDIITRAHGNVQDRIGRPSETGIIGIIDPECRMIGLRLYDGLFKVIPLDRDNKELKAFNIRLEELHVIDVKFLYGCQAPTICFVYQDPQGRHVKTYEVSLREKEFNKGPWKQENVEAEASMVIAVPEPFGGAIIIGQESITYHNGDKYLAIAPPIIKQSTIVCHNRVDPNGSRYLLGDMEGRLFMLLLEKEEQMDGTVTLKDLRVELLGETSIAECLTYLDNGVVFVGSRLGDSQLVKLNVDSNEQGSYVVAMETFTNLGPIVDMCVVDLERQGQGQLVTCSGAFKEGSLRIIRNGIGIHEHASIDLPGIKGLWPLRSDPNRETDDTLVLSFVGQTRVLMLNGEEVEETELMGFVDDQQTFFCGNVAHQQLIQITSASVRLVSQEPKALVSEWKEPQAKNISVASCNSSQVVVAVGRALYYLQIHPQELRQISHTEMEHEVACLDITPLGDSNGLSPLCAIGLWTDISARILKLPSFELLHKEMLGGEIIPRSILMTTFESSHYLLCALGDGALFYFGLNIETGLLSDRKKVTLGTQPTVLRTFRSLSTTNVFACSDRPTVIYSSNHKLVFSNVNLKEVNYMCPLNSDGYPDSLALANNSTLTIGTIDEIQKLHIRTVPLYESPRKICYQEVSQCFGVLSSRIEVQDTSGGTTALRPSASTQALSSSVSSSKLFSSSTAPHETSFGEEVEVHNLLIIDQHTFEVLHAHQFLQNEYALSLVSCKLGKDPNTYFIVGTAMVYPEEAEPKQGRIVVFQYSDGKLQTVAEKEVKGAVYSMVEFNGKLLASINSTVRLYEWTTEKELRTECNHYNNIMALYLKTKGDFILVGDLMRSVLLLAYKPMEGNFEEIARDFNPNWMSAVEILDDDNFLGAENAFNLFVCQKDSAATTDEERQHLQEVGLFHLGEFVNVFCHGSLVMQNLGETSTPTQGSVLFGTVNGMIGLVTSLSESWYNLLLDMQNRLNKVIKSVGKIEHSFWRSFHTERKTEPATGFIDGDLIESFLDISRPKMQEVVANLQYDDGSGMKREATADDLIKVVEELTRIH",
  "test": "cryo-EM structure",
  "data": [
    {"binder": "B1", "values": [
      {"measurement": "binding result", "result": "binds"}
    ]}
  ]
}
